The text below walks through data of paper doi:10.1101/2024.10.30.621104 (bioRxiv, 2024).

This data set concerns the molecule itself. As to the kind of experiment: single-molecule photobleaching step counting.

B1: HSV-1 origin binding protein UL9 labelled at its C-terminus with Atto647N through a ybbR-tag (enzyme, Herpes simplex virus type 1, UniProt P10193 1-851, looked up)
chain: MPFVGGAESGDPLGAGRPIGDDECEQYTSSVSLARMLYGGDLAEWVPRVHPKTTIERQQHGPVTFPNASAPTARCVTVVRAPMGSGKTTALIRWLREAIHSPDTSVLVVSCRRSFTQTLATRFAESGLVDFVTYFSSTNYIMNDRPFHRLIVQVESLHRVGPNLLNNYDVLVLDEVMSTLGQLYSPTMQQLGRVDALMLRLLRICPRIIAMDATANAQLVDFLCGLRGEKNVHVVVGEYAMPGFSARRCLFLPRLGTELLQAALRPPGPPSGPSPDASPEARGATFFGELEARLGGGDNICIFSSTVSFAEIVARFCRQFTDRVLLLHSLTPLGDVTTWGQYRVVIYTTVVTVGLSFDPLHFDGMFAYVKPMNYGPDMVSVYQSLGRVRTLRKGELLIYMDGSGARSEPVFTPMLLNHVVSSCGQWPAQFSQVTNLLCRRFKGRCDASACDTSLGRGSRIYNKFRYKHYFERCTLACLSDSLNILHMLLTLNCIRVRFWGHDDTLTPKDFCLFLRGVHFDALRAQRDLRELRCRDPEASLPAQAAETEEVGLFVEKYLRSDVAPAEIVALMRNLNSLMGRTRFIYLALLEACLRVPMATRSSAIFRRIYDHYATGVIPTINVTGELELVALPPTLNVTPVWELLCLCSTMAARLHWDSAAGGSGRTFGPDDVLDLLTPHYDRYMQLVFELGHCNVTDGLLLSEEAVKRVADALSGCPPRGSVSETDHAVALFKIIWGELFGVQMAKSTQTFPGAGRVKNLTKQTIVGLLDAHHIDHSACRTHRQLYALLMAHKREFAGARFKLRVPAWGRCLRTHSSSANPNADIILEAALSELPTEAWPMMQGAVNFSTL
modifications: Atto647N fluorophore on the C-terminus through a ybbR-tag
The stoichiometry N is a count of units in the complex or per binding partner. Consider B1, for which the “stoichiometry N” value is 2.
